The source of these data is publication PMC4551927 (Nucleic Acids Research, 2015).

The labels stand for the following.
B1: Mycobacterium tuberculosis VapC30 toxin (natural protein)
chain: MMVIDTSALVAMLSDEPDAERFEAAVEADHIRLMSTASYLETALVIEARFGEPGGRELDLWLHRAAVDLVAVHADQADAARAAYRTYGKGRHRAGLNYGDCFSYGLAKISGQPLLFKGEDFQHTDIATVALP

Data set [1] concerns the molecule itself. Description: crystal structure.
Data set [2] has as its target B1. Description: crystal structure.

Turning to B1, the binding result in data set [1] is recorded as “binds”.

B2: Mycobacterium tuberculosis VapB30 antitoxin (natural protein)
chain: MALSIKHPEADRLARALAARTGETLTEAVVTALRERLARETGRARVVPLRDELAAIRHRCAALPVVDNRSAEAILGYDERGLPA
On to B2, for which the binding result in data set [2] and in data set [1] was “binds” in each case.
